Test results as given in patent US20260167721A1.

Experiments:
[1] = molecular target: human CD3 (on human Pan-T cells or donor PBMC) (human) (UniProt P07766); test: cell-based or functional assay
[2] = molecular target: human CD3 (on the surface of Jurkat wild-type cells and of human Pan T cells) (human) (UniProt P07766); test: flow cytometry, isotype control antibody on Jurkat WT cells
[3] = molecular target: human CD3 (on the surface of Jurkat wild-type cells and of human Pan T cells) (human) (UniProt P07766); test: flow cytometry, isotype control antibody on human Pan T cells
RT3-T3.5 (TCR-KO) cells [4] = test: flow cytometry, isotype control antibody on RT3-T3.5 (TCR-KO) negative control cells
[5] = molecular target: human CD3 (TCR/CD3 complex on the cell surface) (human) (UniProt P07766); test: flow cytometry, Pan-T cells, 1 ug/mL
Sequence of human CD3 (TCR/CD3 complex on the cell surface) (human) (P07766 23-207, chain 1 of 4): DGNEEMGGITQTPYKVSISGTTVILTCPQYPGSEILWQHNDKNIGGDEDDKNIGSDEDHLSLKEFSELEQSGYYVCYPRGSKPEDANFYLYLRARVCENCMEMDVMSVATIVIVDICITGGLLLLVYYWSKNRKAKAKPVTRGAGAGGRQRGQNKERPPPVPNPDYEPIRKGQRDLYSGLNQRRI
Sequence of human CD3 (TCR/CD3 complex on the cell surface) (human) (P09693 23-182, chain 2 of 4, further chain): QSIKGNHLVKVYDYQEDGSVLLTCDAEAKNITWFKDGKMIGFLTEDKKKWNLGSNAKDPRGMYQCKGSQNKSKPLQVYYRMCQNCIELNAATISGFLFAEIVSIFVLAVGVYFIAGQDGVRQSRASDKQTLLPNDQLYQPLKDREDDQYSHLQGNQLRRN
Sequence of human CD3 (TCR/CD3 complex on the cell surface) (human) (P04234 22-171, chain 3 of 4, further chain): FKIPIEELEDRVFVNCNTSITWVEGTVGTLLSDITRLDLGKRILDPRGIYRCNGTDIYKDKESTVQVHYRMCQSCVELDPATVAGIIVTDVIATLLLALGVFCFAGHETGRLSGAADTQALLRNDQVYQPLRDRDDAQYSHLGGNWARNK
Sequence of human CD3 (TCR/CD3 complex on the cell surface) (human) (P20963 22-164, chain 4 of 4, further chain): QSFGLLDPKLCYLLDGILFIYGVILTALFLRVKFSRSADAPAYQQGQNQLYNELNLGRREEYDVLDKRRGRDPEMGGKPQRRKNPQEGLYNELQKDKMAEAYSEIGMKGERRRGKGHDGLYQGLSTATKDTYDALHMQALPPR

[6] = molecular target: human CD3 (TCR/CD3 complex on the cell surface) (human) (UniProt P07766); test: flow cytometry, Pan-T cells, 10 ug/mL
[7] = molecular target: human CD3 (TCR/CD3 complex on the cell surface) (human) (UniProt P07766); test: flow cytometry, Jurkat WT cells, 1 ug/mL
[8] = molecular target: human CD3 (TCR/CD3 complex on the cell surface) (human) (UniProt P07766); test: flow cytometry, Jurkat WT cells, 10 ug/mL
[9] = molecular target: human CD3 (on the surface of Jurkat wild-type cells and of human Pan T cells) (human) (UniProt P07766); test: flow cytometry, control antibody on Jurkat WT cells
[10] = molecular target: human CD3 (on the surface of Jurkat wild-type cells and of human Pan T cells) (human) (UniProt P07766); test: flow cytometry, control antibody on human Pan T cells
[11] = molecular target: CD3 on Jurkat wild-type cells (UniProt P07766); test: flow cytometry on Jurkat WT cells, antibody at 1 ug/ml
Sequence of CD3 on Jurkat wild-type cells (P07766 23-207, chain 1 of 3): as the sequence (P07766 23-207, chain 1 of 4) above
Sequence of CD3 on Jurkat wild-type cells (P04234 22-171, chain 2 of 3, further chain): as the sequence (P04234 22-171, chain 3 of 4, further chain) above
Sequence of CD3 on Jurkat wild-type cells (P09693 23-182, chain 3 of 3, further chain): as the sequence (P09693 23-182, chain 2 of 4, further chain) above

[12] = molecular target: CD3 on Jurkat wild-type cells (UniProt P07766); test: flow cytometry on Jurkat WT cells, antibody at 10 ug/ml
[13] = molecular target: human CD3 (TCR/CD3 complex on the cell surface) (human) (UniProt P07766); test: flow cytometry, gMFI Jurkat WT over Jurkat TCRb KO, 1 ug/mL
[14] = molecular target: human CD3 (TCR/CD3 complex on the cell surface) (human) (UniProt P07766); test: flow cytometry, gMFI Jurkat WT over Jurkat TCRb KO, 10 ug/mL
CD33 on KILR-HL60 cells [15] = molecular target: CD33 on KILR-HL60 cells (UniProt P20138); test: flow cytometry on KILR-HL60 (CD33 expressing) cells, antibody at 1 ug/ml
Sequence of CD33 on KILR-HL60 cells (P20138 18-364 limits assumed): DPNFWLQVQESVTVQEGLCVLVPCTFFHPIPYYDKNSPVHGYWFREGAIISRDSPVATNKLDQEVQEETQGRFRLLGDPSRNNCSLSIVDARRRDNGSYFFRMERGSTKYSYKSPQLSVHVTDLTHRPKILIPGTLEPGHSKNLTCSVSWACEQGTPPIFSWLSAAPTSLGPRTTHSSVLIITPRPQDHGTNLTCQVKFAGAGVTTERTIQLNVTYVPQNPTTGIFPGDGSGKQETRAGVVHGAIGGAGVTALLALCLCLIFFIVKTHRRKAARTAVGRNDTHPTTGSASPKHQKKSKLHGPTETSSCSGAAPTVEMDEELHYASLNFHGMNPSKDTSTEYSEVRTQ

CD33 on KILR-HL60 cells [16] = molecular target: CD33 on KILR-HL60 cells (UniProt P20138); test: flow cytometry on KILR-HL60 (CD33 expressing) cells, antibody at 10 ug/ml
[17] = molecular target: Jurkat TCRb knockout cells; test: flow cytometry, Jurkat KO (TCRb knockout) cells, negative control, 1 ug/mL
[18] = molecular target: Jurkat TCRb knockout cells; test: flow cytometry, Jurkat KO (TCRb knockout) cells, negative control, 10 ug/mL
RT3-T3.5 (TCR-KO) cells [19] = test: flow cytometry, control antibody on RT3-T3.5 (TCR-KO) negative control cells
[20] = molecular target: Jurkat TCRb knockout cells; test: flow cytometry on Jurkat KO (TCRb knockout) cells, negative control, antibody at 1 ug/ml
[21] = molecular target: Jurkat TCRb knockout cells; test: flow cytometry on Jurkat KO (TCRb knockout) cells, negative control, antibody at 10 ug/ml

Sequence of Gemtuzumab (antibody) (HC): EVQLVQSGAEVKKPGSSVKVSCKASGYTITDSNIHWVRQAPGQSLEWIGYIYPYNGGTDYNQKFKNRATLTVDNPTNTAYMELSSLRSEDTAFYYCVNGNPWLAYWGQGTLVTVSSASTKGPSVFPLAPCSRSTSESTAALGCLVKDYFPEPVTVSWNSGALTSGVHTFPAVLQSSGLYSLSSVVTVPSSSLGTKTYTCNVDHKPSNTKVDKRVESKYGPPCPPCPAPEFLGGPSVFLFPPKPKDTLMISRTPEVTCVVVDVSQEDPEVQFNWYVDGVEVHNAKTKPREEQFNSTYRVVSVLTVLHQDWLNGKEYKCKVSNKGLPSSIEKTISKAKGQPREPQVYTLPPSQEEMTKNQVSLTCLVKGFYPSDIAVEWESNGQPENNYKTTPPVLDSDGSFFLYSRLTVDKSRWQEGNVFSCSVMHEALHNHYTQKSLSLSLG
Sequence of Gemtuzumab (antibody) (LC): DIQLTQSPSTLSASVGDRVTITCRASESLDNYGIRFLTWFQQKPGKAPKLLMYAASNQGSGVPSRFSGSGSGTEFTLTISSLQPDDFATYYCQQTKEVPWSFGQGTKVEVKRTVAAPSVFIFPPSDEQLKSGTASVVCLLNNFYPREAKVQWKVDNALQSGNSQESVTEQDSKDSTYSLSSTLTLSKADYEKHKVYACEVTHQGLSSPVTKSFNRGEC
Sequence of human CD3 (on the surface of Jurkat wild-type cells and of human Pan T cells) (human) (P07766 23-207, chain 1 of 4): as the sequence (P07766 23-207, chain 1 of 4) above
Sequence of human CD3 (on the surface of Jurkat wild-type cells and of human Pan T cells) (human) (P09693 23-182, chain 2 of 4, further chain): as the sequence (P09693 23-182, chain 2 of 4, further chain) above
Sequence of human CD3 (on the surface of Jurkat wild-type cells and of human Pan T cells) (human) (P04234 22-171, chain 3 of 4, further chain): as the sequence (P04234 22-171, chain 3 of 4, further chain) above
Sequence of human CD3 (on the surface of Jurkat wild-type cells and of human Pan T cells) (human) (P20963 22-164, chain 4 of 4, further chain): as the sequence (P20963 22-164, chain 4 of 4, further chain) above
Sequence of human CD3 (on human Pan-T cells or donor PBMC) (human) (P07766 23-207, chain 1 of 4): as the sequence (P07766 23-207, chain 1 of 4) above
Sequence of human CD3 (on human Pan-T cells or donor PBMC) (human) (P04234 22-171, chain 2 of 4, further chain): as the sequence (P04234 22-171, chain 3 of 4, further chain) above
Sequence of human CD3 (on human Pan-T cells or donor PBMC) (human) (P09693 23-182, chain 3 of 4, further chain): as the sequence (P09693 23-182, chain 2 of 4, further chain) above
Sequence of human CD3 (on human Pan-T cells or donor PBMC) (human) (P20963 22-164, chain 4 of 4, further chain): as the sequence (P20963 22-164, chain 4 of 4, further chain) above

Substance	% Positive [5] [%]	gMFI [5] [gMFI]	% Positive [6] [%]	gMFI [6] [gMFI]	gMFI [7] [gMFI]	gMFI [8] [gMFI]	gMFI [9] [gMFI]	gMFI [10] [gMFI]	flow cytometry signal [11]	flow cytometry signal [12]	Jurkat WT/KO (Fold) [13] [fold]	Jurkat WT/KO (Fold) [14] [fold]	flow cytometry signal (CD33 on KILR-HL60 cells [15])	flow cytometry signal (CD33 on KILR-HL60 cells [16])	gMFI [17] [gMFI]	gMFI [18] [gMFI]	gMFI (RT3-T3.5 (TCR-KO) cells [19]) [gMFI]	flow cytometry signal [20]	flow cytometry signal [21]	also measured
Gemtuzumab (antibody)																				Cytokine Release Assay (IFNγ), Donor 0, gMFI max [1]: 5340 gMFI; Cytokine Release Assay (IFNγ), Donor 1, gMFI max [1]: 4630 gMFI; Cytokine Release Assay (IFNγ), Donor 2, gMFI max [1]: 3580 gMFI; Cytokine Release Assay (IFNγ), Donor 3, gMFI max [1]: 4480 gMFI
Isotype Control (antibody)																				gMFI [2]: 1710 gMFI; gMFI [3]: 4370 gMFI; gMFI (RT3-T3.5 (TCR-KO) cells [4]): 1820 gMFI
OKT3 (antibody)	99.6	603000	99.9	394000	54000	45200	72300	300000	82100	35800	11	11.1	14800	11600	4900	4070	4220	5180	3680	

Continued, in another order:

% Positive [5] [%]	gMFI [5] [gMFI]	% Positive [6] [%]	gMFI [6] [gMFI]	gMFI [7] [gMFI]	gMFI [8] [gMFI]	gMFI [9] [gMFI]	gMFI [10] [gMFI]	flow cytometry signal [11]	flow cytometry signal [12]	Jurkat WT/KO (Fold) [13] [fold]	Jurkat WT/KO (Fold) [14] [fold]	flow cytometry signal (CD33 on KILR-HL60 cells [15])	flow cytometry signal (CD33 on KILR-HL60 cells [16])	gMFI [17] [gMFI]	gMFI [18] [gMFI]	gMFI (RT3-T3.5 (TCR-KO) cells [19]) [gMFI]	flow cytometry signal [20]	flow cytometry signal [21]	Substance	also measured
						114000	333000									7160			SP34 (antibody)	
						102000	359000									5410			UCHT1 (antibody)	
0.8	1860	0.8	1780	1770	1740			2700	2390	0.9	0.9	34300	30200	2020	1860		2830	2620	hIgG1 (antibody)	
